Test results published in paper PMC4267655, “Brr2p carboxy-terminal Sec63 domain modulates Prp16 splicing RNA helicase” (Nucleic Acids Research, 2014).
Changes are numbered by the printed parent chain. Names may count otherwise. Values belong to the molecule of their own block, whether it stands above or below them.

Legend:
Ded1p = molecular target: T1, Ded1p (Saccharomyces cerevisiae, UniProt P06634); assay: ATPase assay, released Pi; assay type: biochemical; settings: 5 nM enzyme, 1 mM ATP, 50 ng/μl total yeast RNA, 20 mM Tris-HCl pH 7.5, 50 mM KAc, 1 mM MgOAc, 30°C
T1 construct: gene DED1; recombinant from E. coli BL21 RIL, purified as previously described
T1 sequence (P06634 2-604): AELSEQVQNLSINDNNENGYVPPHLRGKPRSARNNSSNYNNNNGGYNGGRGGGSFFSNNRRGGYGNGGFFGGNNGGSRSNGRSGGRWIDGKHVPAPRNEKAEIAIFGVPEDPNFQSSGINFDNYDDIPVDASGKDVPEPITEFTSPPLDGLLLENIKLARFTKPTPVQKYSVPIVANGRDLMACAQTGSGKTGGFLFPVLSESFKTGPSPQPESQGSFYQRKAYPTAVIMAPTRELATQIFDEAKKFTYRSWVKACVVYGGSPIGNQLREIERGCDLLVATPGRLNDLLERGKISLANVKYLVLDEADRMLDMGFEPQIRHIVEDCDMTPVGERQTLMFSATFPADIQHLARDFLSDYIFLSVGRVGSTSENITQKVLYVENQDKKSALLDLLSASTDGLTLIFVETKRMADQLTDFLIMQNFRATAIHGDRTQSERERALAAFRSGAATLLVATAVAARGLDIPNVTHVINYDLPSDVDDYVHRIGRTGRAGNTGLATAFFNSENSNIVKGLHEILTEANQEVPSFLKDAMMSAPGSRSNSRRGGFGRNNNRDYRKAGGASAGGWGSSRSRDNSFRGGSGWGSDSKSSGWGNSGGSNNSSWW

Prp22p = molecular target: T2, Prp22p (Saccharomyces cerevisiae, UniProt P24384); assay: ATPase assay, released Pi; assay type: biochemical; settings: 1 mM ATP, 50 ng/μl total yeast RNA, 20 mM Tris-HCl pH 7.5, 75 mM KCl, 1 mM MgSO4, 30°C
T2 construct: gene PRP22; recombinant from E. coli BL21 RIL, purified as previously described
T2 sequence (P24384 1-1145): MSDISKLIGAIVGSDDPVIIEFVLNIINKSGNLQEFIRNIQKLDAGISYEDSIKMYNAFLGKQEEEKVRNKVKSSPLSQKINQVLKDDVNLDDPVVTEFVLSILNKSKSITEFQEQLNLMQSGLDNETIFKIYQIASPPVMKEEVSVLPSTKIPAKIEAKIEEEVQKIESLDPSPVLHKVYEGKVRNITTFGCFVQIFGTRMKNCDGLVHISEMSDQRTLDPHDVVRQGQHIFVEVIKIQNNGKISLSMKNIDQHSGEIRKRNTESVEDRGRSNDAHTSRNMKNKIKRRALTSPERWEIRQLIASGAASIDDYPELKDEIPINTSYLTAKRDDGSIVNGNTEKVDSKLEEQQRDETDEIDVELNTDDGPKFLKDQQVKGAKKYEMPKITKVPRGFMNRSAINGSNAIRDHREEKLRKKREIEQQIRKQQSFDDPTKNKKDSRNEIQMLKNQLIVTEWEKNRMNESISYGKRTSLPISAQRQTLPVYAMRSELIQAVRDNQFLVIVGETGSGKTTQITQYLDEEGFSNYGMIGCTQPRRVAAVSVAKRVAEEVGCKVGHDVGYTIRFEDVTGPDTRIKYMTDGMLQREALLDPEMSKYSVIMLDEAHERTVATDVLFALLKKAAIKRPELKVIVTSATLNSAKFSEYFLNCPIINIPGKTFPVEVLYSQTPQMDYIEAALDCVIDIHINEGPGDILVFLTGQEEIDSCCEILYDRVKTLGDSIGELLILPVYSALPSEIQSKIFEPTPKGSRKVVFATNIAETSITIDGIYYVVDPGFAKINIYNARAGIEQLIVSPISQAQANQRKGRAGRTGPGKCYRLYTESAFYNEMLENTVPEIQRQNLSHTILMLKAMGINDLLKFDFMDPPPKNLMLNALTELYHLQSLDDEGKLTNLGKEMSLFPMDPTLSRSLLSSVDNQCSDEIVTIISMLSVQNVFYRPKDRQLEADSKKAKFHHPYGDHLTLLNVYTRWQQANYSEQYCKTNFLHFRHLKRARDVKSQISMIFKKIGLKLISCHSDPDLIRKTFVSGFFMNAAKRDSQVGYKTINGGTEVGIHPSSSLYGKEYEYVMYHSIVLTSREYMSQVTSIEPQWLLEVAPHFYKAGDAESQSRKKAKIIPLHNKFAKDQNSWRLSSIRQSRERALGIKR

Prp16p = molecular target: T3, Prp16p (UniProt P15938 1-1071); assay: EMSA; no ATP; 2 nM RNA; EMSA in the Prp16p ATPase assay buffer without ATP (composition, pH and temperature not in the material), 2 nM 5' 32P-labeled RNA; settings: protein: recombinant; tags: His (pET22b-PRP16-His); label: 5' 32P; single stranded
T3 sequence: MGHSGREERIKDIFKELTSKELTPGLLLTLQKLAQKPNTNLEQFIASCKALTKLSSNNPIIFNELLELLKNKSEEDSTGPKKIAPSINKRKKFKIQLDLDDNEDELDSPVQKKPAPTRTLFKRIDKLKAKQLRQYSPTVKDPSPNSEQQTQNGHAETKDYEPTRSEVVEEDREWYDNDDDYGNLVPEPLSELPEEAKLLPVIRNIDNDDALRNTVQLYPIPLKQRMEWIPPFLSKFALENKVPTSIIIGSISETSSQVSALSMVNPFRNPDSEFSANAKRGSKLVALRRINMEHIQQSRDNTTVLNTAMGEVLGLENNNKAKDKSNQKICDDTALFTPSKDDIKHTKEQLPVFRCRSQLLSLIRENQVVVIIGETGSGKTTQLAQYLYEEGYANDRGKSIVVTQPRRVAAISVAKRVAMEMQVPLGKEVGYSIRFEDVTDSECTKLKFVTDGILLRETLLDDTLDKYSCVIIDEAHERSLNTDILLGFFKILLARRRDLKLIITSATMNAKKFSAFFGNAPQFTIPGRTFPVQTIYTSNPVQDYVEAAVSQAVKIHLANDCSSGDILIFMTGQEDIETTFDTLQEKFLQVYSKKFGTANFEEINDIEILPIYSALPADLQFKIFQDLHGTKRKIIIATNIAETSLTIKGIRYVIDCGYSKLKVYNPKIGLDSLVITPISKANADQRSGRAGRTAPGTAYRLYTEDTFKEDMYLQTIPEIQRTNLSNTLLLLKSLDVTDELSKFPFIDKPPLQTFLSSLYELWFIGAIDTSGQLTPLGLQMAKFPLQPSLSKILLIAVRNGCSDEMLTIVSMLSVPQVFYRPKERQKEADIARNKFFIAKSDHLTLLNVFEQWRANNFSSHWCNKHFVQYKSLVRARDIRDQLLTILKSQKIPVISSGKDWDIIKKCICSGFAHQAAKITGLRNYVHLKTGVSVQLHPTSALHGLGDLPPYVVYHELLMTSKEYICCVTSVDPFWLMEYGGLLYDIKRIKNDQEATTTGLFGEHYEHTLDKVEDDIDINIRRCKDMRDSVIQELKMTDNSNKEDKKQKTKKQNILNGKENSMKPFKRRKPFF

[1] = molecular target: T4, recombinant Prp16p (wild type) (budding yeast, UniProt P15938 1-1071); assay: native gel or EMSA; apparent; Prp16p (300 nM) with 2-nM 32P-labelled 44-nt ssRNA and increasing amounts of Sec63-2p or Sec63-2 R1899Gp; loss of the Prp16p-RNA complex; buffer of the Prp16p ATPase assay without ATP; settings: both partners purified
T4 construct: Prp16p, budding yeast; also called WT Prp16p; source: E. coli BL21 RIL, purified (NiNTA-agarose)
T4 sequence (looked up): T3 sequence

[2] = molecular target: T4, recombinant Prp16p (wild type); assay: cell-based or functional assay
[3] = substrate: Nc1ncnc2c1ncn2[C@@H]1O[C@H](COP(=O)(O)OP(=O)(O)OP(=O)(O)O)[C@@H](O)[C@H]1O; assay: ATPase assay, released Pi; assay type: biochemical, Saccharomyces cerevisiae; settings: 10 nM enzyme, 50 ng/μl total yeast RNA, no Sec63-2p, 20 mM Tris-HCl pH 7.5, 75 mM KCl, 1 mM MgSO4, 30°C
Text: ATPase assay, released Pi on Prp16p

Molecule: Nc1ncnc2c1ncn2[C@@H]1O[C@H](COP(=O)(O)OP(=O)(O)OP(=O)(O)O)[C@@H](O)[C@H]1O [ATP]
ATPase assay, released Pi (Ded1p): no effect of Sec63-2p on the ATPase activities of Ded1p | ATPase assay, released Pi (Prp22p): no effect of Sec63-2p on the ATPase activities of Ded1p

B1: 44-nt ssRNA (ssRNA)
RNA: GGGCGAAUUCAAAACAAAACAAAACUAGCACCGUAAAGCAAGCU
binding result (Prp16p): binds

Kd (dissociation constant) [1]: 479 ± 2 nM | ATPase activity of Prp16p (10 nM) in vitro with increasing molar excess of Sec63-2p, in presence of 50-ng/μl total yeast RNA [2]: 2 fold
B2: recombinant Brr2 Sec63-2p (domain or fragment, budding yeast, UniProt P32639 1846-2160, looked up)
chain: TLSNGLIASHYGVSFFTIQSFVSSLSNTSTLKNMLYVLSTAVEFESVPLRKGDRALLVKLSKRLPLRFPEHTSSGSVSFKVFLLLQAYFSRLELPVDFQNDLKDILEKVVPLINVVVDILSANGYLNATTAMDLAQMLIQGVWDVDNPLRQIPHFNNKILEKCKEINVETVYDIMALEDEERDEILTLTDSQLAQVAAFVNNYPNVELTYSLNNSDSLISGVKQKITIQLTRDVEPENLQVTSEKYPFDKLESWWLVLGEVSKKELYAIKKVTLNKETQQYELEFDTPTSGKHNLTIWCVCDSYLDADKELSFEI
notes: Brr2p, budding yeast, carboxy-terminal Sec63-2 domain; detected with anti-His-HRP antibodies; also called WT Sec63-2p; Brr2 Sec63-2p domain; source: E. coli BL21 RIL, purified (Hi-Trap IMAC HP charged with Ni)

Kd (dissociation constant) [1]: 3097 ± 3 nM
B3: recombinant Brr2 Sec63-2 R1899Gp (domain or fragment, budding yeast, UniProt P32639 1846-2160, looked up)
chain: B2 chain with R54G
notes: Brr2p, budding yeast, carboxy-terminal Sec63-2 domain; also called Sec63-2 R1899G mutant protein; Brr2-R1899G mutant protein; source: E. coli BL21 RIL, purified (Hi-Trap IMAC HP charged with Ni)

B4: Prp16p (Saccharomyces cerevisiae S288C) (protein)
chain: T3 sequence
notes: recombinant from E. coli BL21 RIL, NiNTA purified (His-tagged)
Km [3]: 751 ± 181 µM | kcat [3]: 3.05 ± 0.683 s⁻¹
